# Laboratory results as given in article PMC10960814.
# Columns and labels:
# [1] = target: full-length human insulin receptor, B isoform (hIR-B), with a kinase-dead mutation, construct for structural studies (human); assay: cryo-EM structure; purified hIR-A or hIR-B dimer fraction (20 mM HEPES-Na pH 7.5, 400 mM NaCl, 0.03% DDM) with refolded IGF2 added at a 2:8 (m/m) ratio, 2 h; saturated IGF2
# [2] = target: full-length human IR-A, Myc-tagged (pCS2-IR-A-Myc) (human) (UniProt P06213); assay: competition-binding assay (fluorescent insulin on bead-bound receptor); IR-A-Myc or IR-B-Myc held on anti-c-Myc magnetic beads; 1 nM Alexa Fluor labeled human insulin and the indicated amount of homemade IGF2, 4 °C, 14 h; 20 mM Hepes pH 7.4, 200 mM NaCl, 0.03% DDM, 0.003% CHS, 100 nM BSA; fluorescence of the eluate
# [3] = target: full-length human IR-B, Myc-tagged (pCS2-IR-B-Myc) (human) (UniProt P06213); assay: as above
"stoichiometry N (IGF2 per IR dimer (class 1, symmetric)) [1]","stoichiometry N (IGF2 per IR dimer (class 2, asymmetric)) [1]",stoichiometry N ([1]; scale: IGF2 per IR dimer),fold of binding affinity against IGF2 WT [2] [fold],fold of binding affinity against IGF2 WT [3] [fold],Substance
4,3,2,–,–,"insulin-like growth factor 2 (IGF2), wild type, homemade (from UniProt P01344 25-91) (ligand)"
–,–,–,3,3,IGF2 R30A mutant (ligand)
